Values quoted from earlier work as cited in publication PMC10941800.
Read-outs that look alike come from different tables or passages of the source.

Columns and labels:
Settings in all cases: cited from earlier work
[1] = target: measles virus hemagglutinin (Measles morbillivirus) (UniProt P08362)
[2] = target: measles virus hemagglutinin (Measles morbillivirus) (UniProt P08362); remark: listed apart in the source
[3] = target: measles virus hemagglutinin (Measles morbillivirus) (UniProt P08362); remark: listed apart in the source

Chain of UniProt P08362 (P08362 59-617): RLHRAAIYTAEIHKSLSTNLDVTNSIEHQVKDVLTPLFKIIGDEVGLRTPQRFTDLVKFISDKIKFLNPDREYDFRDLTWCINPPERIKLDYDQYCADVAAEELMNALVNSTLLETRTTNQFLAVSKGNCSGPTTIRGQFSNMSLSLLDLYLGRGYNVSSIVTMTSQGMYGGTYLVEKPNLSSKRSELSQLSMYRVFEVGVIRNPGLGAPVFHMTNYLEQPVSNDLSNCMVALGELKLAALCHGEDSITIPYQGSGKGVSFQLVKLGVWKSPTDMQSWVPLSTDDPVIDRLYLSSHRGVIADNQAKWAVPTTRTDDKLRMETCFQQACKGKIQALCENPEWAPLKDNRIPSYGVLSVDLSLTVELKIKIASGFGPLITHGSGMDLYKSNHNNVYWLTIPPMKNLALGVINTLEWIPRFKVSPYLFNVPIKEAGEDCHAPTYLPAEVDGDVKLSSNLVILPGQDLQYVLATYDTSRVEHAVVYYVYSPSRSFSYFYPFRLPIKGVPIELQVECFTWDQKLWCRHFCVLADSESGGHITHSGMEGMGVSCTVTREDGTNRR

CD46 (from UniProt P15529)
Kd [1]: 200 nM

SLAM (from UniProt Q13291)
Kd [2]: 170 nM

Nectin-4 (from UniProt Q96NY8)
Kd [3]: 670 nM
